This series deals with the molecule itself. Briefly: mass photometry; sample 25 to 100 nM in a gasket well on glass coverslips, acquisition for 60 s; mass from contrast comparison with bovine serum albumin calibrants.

B1: Cavin1 (1–190) (domain or fragment, UniProt O54724 1-190, looked up)
chain: MEDVTLHIVERPYSGFPDASSEGPEPTQGEARATEEPSGTGSDELIKSDQVNGVLVLSLLDKIIGAVDQIQLTQAQLEERQAEMEGAVQSIQGELSKLGKAHATTSNTVSKLLEKVRKVSVNVKTVRGSLERQAGQIKKLEVNEAELLRRRNFKVMIYQDEVKLPAKLSVSKSLKESEALPEKEGDELGE
notes: Cavin1, residues 1 to 190 (DR1 1–43, HR1 45–155, DR2 156–190); By mass photometry it was detected as trimers and also as monomers; also called N-terminal part (residues 1 to 190); DR1–HR1–DR2; source: E. coli Rosetta pLysS or BL21(DE3)pLysS, purified (TALON Superflow, gel filtration on Sephacryl S-300 HR)
On to B1, for which the “stoichiometry N” value came out at 3.

As usually defined, the stoichiometry N is a count of units in the complex or per binding partner.

Source of the values: article PMC9231606, “Membrane insertion mechanism of the caveola coat protein Cavin1” (Proceedings of the National Academy of Sciences of the …, 2022).
